Measurements from paper PMC10269165 (Antimicrobial Agents and Chemotherapy, 2023).

Experiments:
[1] = system: PMT-complemented mutant yeast; test: Growth inhibition of complemented yeast (statement on PMT-complemented strains together); format: cell-based, Saccharomyces cerevisiae; conditions: various concentrations
Method: (§1) To determine the effect of PMT inhibitors on the growth of PMT- and LacZ-complemented pem1Δpem2Δ S. cerevisiae, the yeast cells were first starved of choline as described above, and the cells were diluted to an OD600 of ~0.6. The PMT-complemented yeast cells were cultured in SG medium (3.4g/L yeast nitrogen base without amino acids, 2% galactose, 30 mg/L histidine, 100 mg/L leucine, 100 mg/L adenine, and 50 mg/L tryptophan) supplemented with 1 mM ethanolamine hydrochloride, while the LacZ-complemented yeast cells were cultured in SG medium supplemented with 1 mM choline chloride. Compounds that depicted cross-inhibitory activity against PMT proteins in vitro were added at various concentrations to the cultures. As a negative control, DMSO (at a final concentration not exceeding 2% [vol/vol]) was added to yeast cultures designated control cultures. The cultures were incubated at 30°C with shaking at 275 rpm for 4 days. On a daily basis during the course of culture, 200-μL portions of culture aliquots were taken, and their OD600s were measured using a microplate reader. In preliminary work, we had observed that the growth of PMT- and LacZ-complemented pem1Δpem2Δ S. cerevisiae plateaued at 3 to 4 days of culture. Therefore, to determine the inhibitory effect of nematode PMT inhibitors on the growth of PMT- and LacZ-complemented pem1Δpem2Δ S. cerevisiae, measurements taken on day 3 were used. The results were presented as percentage of growth rate using the following formula: PGR = growth rate (plus inhibitor)/growth rate (minus inhibitor) × 100 where the percent growth rate (PGR) is the growth rate of inhibitor-treated PMT- or LacZ- complemented Pem1Δpem2Δ S. cerevisiae, considering the growth rate of untreated PMT- or LacZ- complemented Pem1Δpem2Δ S. cerevisiae is 100%; the growth rate = ΔA600^Day 3/ΔA600^Day 0; ΔA600^Day 0 is the absolute value of A600 of PMT- or LacZ- complemented pem1Δ/pem2Δ S. cerevisiae at day 0, which equals the A600 of the culture minus the A600 of the growth medium only; ΔA600^Day 3 is the absolute value of the A600 of PMT- or LacZ complemented pem1Δ/pem2Δ S. cerevisiae at day 3, which equals the A600 of the culture at day 3 minus the A600 of growth medium only; the growth rate (plus inhibitor) is the growth rate of PMT- or -LacZ complemented pem1Δpem2Δ S. cerevisiae in the presence of test compound; and the growth rate (minus inhibitor) is the growth rate of the PMT- or LacZ complemented pem1Δ/pem2Δ S. cerevisiae in the absence of test compound, but with a volume of DMSO equal to that of compound added in the treated culture. The dose-response curves were generated with GraphPad Prism software and IC50 concentrations of the compounds in PMT- and LacZ-complemented yeast cells derived.

[2] = system: LacZ-complemented pem1Δ/pem2Δ S. cerevisiae; test: Growth inhibition of complemented yeast; format: cell-based, Saccharomyces cerevisiae; conditions: medium with choline
Method: as §1

TcPMT = TcPMT (Toxocara canis, UniProt A0A0B2VTW9); test: PMT enzyme kinetics, fluorescence methyltransferase assay; format: biochemical; conditions: on phosphoethanolamine
Method: (§2) We customized a commercial methyltransferase HT activity assay kit (ENZO) for use of recombinant PMT proteins as enzymes, S-adenosyl-L-methionine (SAM) as the methyl donor, and PE as the substrate, as reported previously ([27]). […] Briefly, the reaction mixture contained 2.5 μL of the kit SAM-free methyltransferase reaction buffer, 3 μL of 10 mM PE solution (pH 7.5), 15 μL of 1 mM SAM solution (pH 7.8), and 1× transferase assay buffer to a final volume of 25 μL. Various concentrations (25-μL total volume) of recombinant PMT protein were added to reactions.
(§3) To determine the enzyme kinetic parameters on SAM, fixed concentrations of PMT recombinant proteins (between 15 and 100 ng/μL, depending on the derived optimal concentration) and PE (200 μM) were used in the reactions, with various concentrations of SAM (0 to 160 μM). On the other hand, to determine the enzyme kinetic parameters on PE, fixed concentrations of PMT recombinant proteins (between 15 and 100 ng/μL, depending on the derived optimal concentration) and SAM (100 μM) were used, with various concentrations of PE (0 to 250 μM).
(§4) For normalization, instead of purified protein, 25 μL of 100 μM S-(5′-adenosyl)-L-homocysteine (SAH) as a positive control, 25 μL of dialysis buffer as a negative control, and 25 μL of 1× transferase assay buffer as a blank control were added to the respective reaction mixtures. The reactions were prepared in triplicate wells using black flat-bottomed 96-well plates. Detection buffer (100 μL) was added into each reaction, yielding a final reaction volume of 150 μL. The plates were covered in aluminum foil and incubated at room temperature with shaking for 30 min, and fluorescence read at 380EX/520EM using a SpectraMax Gemini EM microplate reader (Molecular Devices). Sample readouts were normalized with positive and negative controls.

AsPMT = AsPMT (Ascaris suum, UniProt F1L4B9); test: as above; format: biochemical; conditions: on phosphoethanolamine
Sequence of AsPMT (F1L4B9 entry or part of it): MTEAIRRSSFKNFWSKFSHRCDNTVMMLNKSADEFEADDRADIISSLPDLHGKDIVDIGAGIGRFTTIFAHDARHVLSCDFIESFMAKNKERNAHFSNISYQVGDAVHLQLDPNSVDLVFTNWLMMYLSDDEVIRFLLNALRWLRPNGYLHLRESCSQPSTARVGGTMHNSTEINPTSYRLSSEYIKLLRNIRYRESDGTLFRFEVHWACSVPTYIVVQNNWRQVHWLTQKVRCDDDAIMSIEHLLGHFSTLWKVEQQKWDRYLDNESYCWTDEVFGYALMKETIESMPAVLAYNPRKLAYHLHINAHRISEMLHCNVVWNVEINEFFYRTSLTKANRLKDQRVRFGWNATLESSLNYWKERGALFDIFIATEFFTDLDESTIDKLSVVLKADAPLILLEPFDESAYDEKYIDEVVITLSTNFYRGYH
Method: as §2, §3, §4

AcPMT1 = AcPMT1 (Ancylostoma duodenale, UniProt A0A0C2DEB6); test: as above; format: biochemical; conditions: on phosphoethanolamine
Method: as §2, §3, §4

OdPMT = OdPMT (Oesophagostomum dentatum, UniProt A0A0B1TAL6); test: as above; format: biochemical; conditions: on phosphoethanolamine
Method: as §2, §3, §4

DvPMT1 = DvPMT1 (Dictyocaulus viviparus, UniProt A0A0D8Y714); test: as above; format: biochemical; conditions: on phosphoethanolamine
Method: as §2, §3, §4

HcPMT1 = HcPMT1 (Haemonchus contortus, UniProt U5HK46); test: as above; format: biochemical; conditions: on phosphoethanolamine
Method: as §2, §3, §4

[3] = substrate: C[S+](CC[C@H](N)C(=O)[O-])C[C@H]1O[C@@H](n2cnc3c(N)ncnc32)[C@H](O)[C@@H]1O; test: as above; format: biochemical, Haemonchus contortus; conditions: other: on S-adenosyl-L-methionine
Method: as §2
(§5) To determine the enzyme kinetic parameters on SAM, fixed concentrations of PMT recombinant proteins (between 15 and 100 ng/μL, depending on the derived optimal concentration) and PE (200 μM) were used in the reactions, with various concentrations of SAM (0 to 160 μM). […]
as §4, with “The reactions were prepared in triplicate wells using black flat-bottomed 96-well plates. Detection buffer (100 μL) was added into each reaction, yielding a final reaction volume of 150 μL.” left out

[4] = substrate: C[S+](CC[C@H](N)C(=O)[O-])C[C@H]1O[C@@H](n2cnc3c(N)ncnc32)[C@H](O)[C@@H]1O; test: as above; format: biochemical, Oesophagostomum dentatum; conditions: other: on S-adenosyl-L-methionine
Method: as §2, §3, §4

[5] = substrate: C[S+](CC[C@H](N)C(=O)[O-])C[C@H]1O[C@@H](n2cnc3c(N)ncnc32)[C@H](O)[C@@H]1O; test: as above; format: biochemical, Toxocara canis; conditions: other: on S-adenosyl-L-methionine
Method: as §2, §3, §4

[6] = substrate: C[S+](CC[C@H](N)C(=O)[O-])C[C@H]1O[C@@H](n2cnc3c(N)ncnc32)[C@H](O)[C@@H]1O; test: as above; format: biochemical, Dictyocaulus viviparus; conditions: other: on S-adenosyl-L-methionine
Method: as §2, §3, §4

[7] = substrate: C[S+](CC[C@H](N)C(=O)[O-])C[C@H]1O[C@@H](n2cnc3c(N)ncnc32)[C@H](O)[C@@H]1O; test: as above; format: biochemical, Ancylostoma duodenale; conditions: other: on S-adenosyl-L-methionine
Method: as §2, §5
as §4, with “The reactions were prepared in triplicate wells using black flat-bottomed 96-well plates. Detection buffer (100 μL) was added into each reaction, yielding a final reaction volume of 150 μL.” left out

Molecule: CC[C@H]1NC(=O)[C@@H](NC(=O)c2ncccc2O)[C@@H](C)OC(=O)[C@H](c2ccccc2)NC(=O)[C@@H]2CC(=O)CCN2C(=O)[C@H](Cc2ccccc2)N(C)C(=O)[C@@H]2CCCN2C1=O [NSC177858]
- effect on the growth of PMT-complemented mutant yeast [1]: concentration-dependent inhibitory effect
- effect on LacZ-expressing mutant yeast [2]: no or negligible inhibitory effect

Molecule: NCCOP(=O)(O)O [phosphoethanolamine]
- Km (TcPMT): 85 ± 77.8 µM
- kcat (TcPMT): 10.412 ± 3.6983 s⁻¹
- Km (AsPMT): 99.9 ± 36.6 µM
- kcat (AsPMT): 3.2383 ± 0.49 s⁻¹
- kcat (AcPMT1): 7,071.00 ± 1,141.00 min^−1
- Km (OdPMT): 81 ± 12.8 µM
- kcat (OdPMT): 5.5833 ± 0.3603 s⁻¹
- Km (DvPMT1): 308 ± 41.7 µM
- kcat (DvPMT1): 16.113 ± 1.61 s⁻¹
- Km (HcPMT1): 73.4 ± 54.9 µM
- kcat (HcPMT1): 1,066.30 ± 72.70 min^−1

B1: HcPMT1 (Haemonchus contortus) (protein)
chain: MTAEVRRDSFKTFWDKYSDKPDTNSMMLNQTAQDLEASDRADILSSLPHLTNKDVVDIGAGIGRFTTVLAETARWVLSTDFIESFIEKNQERNAHMGNISYQIGDAVHLQMDEKSVDLVFTNWLMMYLSDREVIEFLLNAMRWLRADGYIHLRESCSEPSTGRLKTATMHSAVDANPTHYRFSSLYIKLLRAIRYRDSDGKMWKFDVQWSCSVPTYIRRCNNWRQVHWLTKKVPAVGDEETSVDDLLNLFSQIWPAEQKTWDEKLDNEKYSWTDKIFSNAIDDEVVPKNSTAYVFTPRQRSPFLHVNSHLLAEKFTCNVWNVETKEYLYRTSLTKANNQKDQRVRFGWNESLSSSIDYWNQRDASFDCMVATELLATCDDESINSIASIMKPEAKVVLLEPVSGIDETSVRQRMTTCGFKNITIVDVTQESLNAEVSFIKDHNLDVELSGCNYLLIKASL
- Km [3]: 18.34 ± 3.80 µM
- kcat/Km [3]: 3.91e+06 M⁻¹ s⁻¹

B2: OdPMT (Oesophagostomum dentatum) (protein)
chain: MIFQKRFTTVLAETARWVHSTDFIESFIAKNQERNAHLGNISYQIGDAVHLQMDEKSVDLVFTNWLMMYLSDREVIEFLFNAMRWLRADGYMHLRESCSEPSTGRSKSATMHTSAEANPTHYRFSSLYIKLLRALRYQDSDGKVWRFDVQWSCSVPTYIRFFSETWRAEQIAWDAKLDKEQYVWTDKIFSNVLDSAVVPKNSTAYVFTPRRRSPYLHVNSHLLADKFTCNVWNVELNENFYRTSLTKANNQKDQRVRFGWNETLASSIDYWTQRDGSFDCLIATELLSTSDDESIKSIASIMKPEAKCVLLEPVDEVNEAVIKARMSSCGFKNVSVMDVTEDCKAAEAAYASDHNLQIDPSNCSYVLINASL
- Km [4]: 48.95 ± 7.07 µM
- Vmax [4]: 3.13 ± 0.204 µmol/min/mg
- kcat [4]: 45.4 ± 2.96 s⁻¹
- kcat/Km [4]: 927000 M⁻¹ s⁻¹

B3: TcPMT (Toxocara canis) (protein)
chain: MPRLNQKAKTFRDFLDTTQYTDEGIRAYEWIFGENFISPGGYNENLLVLKRLGELKPDSRMLDIGVGIGGGARQAAKEFGLLVLGIDISANMLSIAMDRLQVEKDTRIRYQICNAVDYQFPSNSFDYIVSRDGLHHNEHIDIVMKNIFKWLKPGGKALITIYGKGHGAPKTKFQAYVENRKYHLKTLEQMVQVTKDAGFENVQGTNLTKRLRDILIEERTRALARKGRFLEDFSEETFNSLLEGWNDKIDFIDDDNQTWLQIIATKPL
- Km [5]: 20.31 ± 2.23 µM
- Vmax [5]: 1.08 ± 0.0324 µmol/min/mg
- kcat [5]: 10.9 ± 0.327 s⁻¹
- kcat/Km [5]: 539000 M⁻¹ s⁻¹

B4: DvPMT1 (Dictyocaulus viviparus) (protein)
chain: MSQGMRHADAVIYGEYDNGRRMKENELKGEHIKNYRTTYDENSFNNTMAVEVRRDLFKTFWDRYSDKPDTNSMMLNHTANDLDASDRADILSSLPHLGNKDVVDIGAGIGRFTTVLANTARWVHSTDFIESFIAKNQERNAHLGNISYQIGDAVNLQMNERSVDLVFTNWLMMYLSDHEVIEFLFNAMRWLRPDGYLHLRESCSEPSTACSKTATMHSSAEANPTHYRFSSLYIKLLRTIRYRDNSGKLWKFDVQWSCSVPTYIQRSNNWRQVHWLTRKVPANNGDTDTSISLLLNLFSQIWPAEQVEWDLKLNIESYVWTDRVFSNAINDEVVPRNGTALVFTPRKRSPYLHVNSHLLAEKFTCNVWTVETNEYYYRTSLTKANHEKNHRVRFGWNESLTSSIDYWSQRDASFDCLISTELLSTNSDDEIKRITRMIGCGFKHVNILDVTNDSRTAEVMFYSEHSINAEPLGCTFLLISATL
- Km [6]: 35.02 ± 5.05 µM
- Vmax [6]: 0.445 µmol/min/mg
- kcat [6]: 3.96 ± 0.214 s⁻¹
- kcat/Km [6]: 113000 M⁻¹ s⁻¹

B5: AcPMT1 (Ancylostoma duodenale) (protein)
chain: MEERSVDLVFTNWLMMYLSDREVIEFLFNAMRWLRADGYMHLRESCSEPSTGRAKSSTMHSNTDSNPTHYRFSSLYIKLLRAIRYRDNDGKVWRFDVQWSCSVPTYIKRSNNWRQVHWLTKKVSADGDDETTINDLLKLFSQTWYTEQVAWDAKLDNEKYVWTDKIFSNAIDNEVVPKNSTAYVFTPRKMSPYLHINSHLLAEKFTCNVWNVEMNENFYRTSLTKANNQKDQRVRFGWNESLASSIDYWTQRDASFDCLIGTELLSTNGDESIKRIASIMKPEAKIVLLEPVDDVAEQAIKERMASCGFKNISVVDVTEECKAAEAAYANDHNLAFLFIEL
- Km [7]: 27.33 ± 3.58 µM
- kcat/Km [7]: 1.98e+06 M⁻¹ s⁻¹
